Assay results from paper doi:10.1101/2024.06.20.599739 (2024).

Legend:
Experiment in all cases: SPR
[1] = biological target: EvoBind2 linear design, adversarial selection, length 11
linear 19 () = biological target: linear 19 ()
linear 15 () = biological target: linear 15 ()
linear 11 () = biological target: linear 11 ()
linear 12 () = biological target: linear 12 ()

Kd (linear 19 ()): 7.18 µM
Kd (linear 15 ()): 4.34 µM
Kd (linear 11 ()): 7.54 µM
Kd (linear 12 ()): 0.728 µM
B1: MBP-8xHis-1SCC (semi-synthetic Ribonuclease, PDB ID 1SSC) (enzyme)
chain: KETAAAKFERQHMDSSTSAASSSNYCNQMMKSRNLTKDRCKPVNTFVHESLADVQAVCSQKNVACKNGQTNCYQSYSTMSITDCRETGSSKYPNCAYKTTQANKHIIVACEG
Kd [1]: 1.21 µM
